Results as given in patent US20060167229A1, “Biologically active peptide conjugates” (priority 2002, published 2006).

Key:
IL-2 = assay: T lymphocyte IL-2 secretion test (HT-2 cell bioassay of ConA supernatant); assay type: in vivo, BALB/c mice; conditions: healthy mice
Method: Spleen cells of density 1×10^6/ml were placed onto a 96 wells cell culture plate, 100 μL/well, three parallel wells each of the assay sample and control sample per mouse. To the assay wells, 100 μl/well ConA of 100 μg/ml in RPMI-1640 was added, and […] plain RPMI-1640 was used for the controls. The cells were incubated for 66 hrs at 37° C., 5% CO2. The cells were then pelleted by centrifugation at 150 g for 10 minutes.
HT-2 cells at log phase were collected by centrifugation at 150 g for 10 minutes, and washed three times with cold Hank's solution by re-suspension and centrifugation. The collected HT-2 cells were re-suspended in RPMI-1640 and incubated at 37° C., 5% CO2 for 30 minutes. The cells were further washed twice with RPMI-1640 by re-suspension and centrifugation, and re-suspended to final concentration of 2×10^5/ml with RPMI-1640.
rIL-2 was diluted to the following concentration with RPMI-1640: 500 IU/ml, 250 IU/ml, 125 IU/ml, 62.5 IU/ml, 31.25 IU/ml, and […].
The plate was incubated at 37° C., 5% CO2 for 68 hours, then centrifuged at 150 g for 15 minutes and the supernatant removed. 100 μl 0.5 mg/ml MTT in RPMI-1640 without phenolsulfonphthalein was added into each well. After shaking for 3-4 minutes to re-suspend the cells, continue to incubate for another 4 hours. Samples were then centrifuged at 150 g for 15 minutes and the supernatant was removed. To each well, 120 μl 40 mM HCl-2-propanol was added, mixed for 3-4 minutes and OD analyzed at 570 nm, referenced at 630 nm with an ELISA plate reader.
The average OD of the three parallel wells of each dilution was taken and plotted against concentration on a semi-log paper, concentration on the X-axis. The concentration at 50% OD saturation was obtained for both the testing supernatant and rIL-2.

[1] = test system: Sheep red blood cells (SRBC); assay: Humoral immunity (SRBC hemolysis index) of mice bearing transplanted B16 melanoma; assay type: in vivo, C57BL/6 mice; design: key: index = (OD540 sample ÷ reference OD540) × 500; conditions: controls: rhIL-2, rmIFN-γ 3 × 10^5 IU/kg, cyclophosphamide 20 mg/kg, saline 19.0 ± 9.1
Method: Intraperitoneal injection, once per day. […] Treatment of all groups with testing substance lasted for 30 days or until the animal died unless otherwise specified.
Stock B16 mouse melanoma cells were incubated in DMEM/F12 medium supplemented with 10% fetal bovine serum, 37° C./5% CO2 for 72 hrs, then washed 3-4 times with Hank's solution. The cell concentration was adjusted to 1×10^5 per ml with Hank's solution and 0.1 ml of the cell suspension was injected via the tail vein into the testing mice to generate the B16 melanoma bearing animal model. Treatment with test substance started as described in section Method 1.
Sheep red blood cells (SRBC) were prepared by collecting blood from the cervical vein and put into a sterile flask with glass beads. The flask was shaken for 3 minutes and the blood then mixed with Alsever solution (glucose 2.05 g, NaCl 0.4 g, […] 0.8 g, adjust to 100 ml with distilled water) and stored at 4° C. Immediately before use, samples were centrifuged at 130 g, 5 minutes to collect the SRBC. The cells were washed two times by re-suspension and centrifugation in normal saline. Then the cell pellet was collected by centrifugation at 180 g for 10 minutes and re-suspended in saline to make the final working SRBC suspension, 2% (v/v).
Complement was prepared by adding 10 volumes of fresh Cavy serum into one volume centrifuge packed SRBC, and then gently shaken for 30 minutes at 4° C. The SRBC was removed by centrifugation at 200 g for 10 minutes. 10 volumes of normal saline were added to obtain the working complement solution.
On the testing animals, on the 27th date of test substance treatment, 0.2 ml of the working SRBC cell suspension was injected into each animal to raise antibody. On the day after the last test substance administration, blood was collected from the eye canthus and left at room temperature for one hour for serum exudation. After centrifugation at 200 g for 10 minutes, the collected serum was diluted by 500 times with normal saline.
To 1 ml diluted mouse serum of each mouse, 0.5 ml SRBC suspension was added. Ice cold. Then 1 ml working complement solution was added and incubated at 37° C. water bath for 10 minutes. Reactions were terminated by ice cold. Samples were then centrifuged at 200 g for 10 minutes to obtain the supernatant.
To 1 ml of this supernatant, 3 ml Drabkin solution was added and left at room temperature for 10 minutes. OD540 nm was obtained.
Reference OD540 nm was obtained by mixing 0.25 ml SRBC suspension with Drabkin solution to 4 ml and placed at room temperature for 10 minutes before OD540 nm was taken. Hemolysis index=(OD540 nm of test sample÷reference OD540 nm)×500 6.2 After the Humoral Immunity Study, the Mice were Killed by Cervical Vertebra Dislocation. Postmortem Examination of the Animals was Performed. The Pathological Changes were Recorded, and the Numbers of Melanoma Lung Metastasis Foci Were Counted. Results

T lymphocyte = T lymphocyte transformation test (ConA-stimulated spleen cells of treated mice, MTT); assay type: in vivo, BALB/c mice; conditions: healthy mice, saline 1.3 ± 0.1
Outline: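 Mice (10/group) received substances i.p. in 0.5 ml saline daily for 15 days; next day splenocytes (1×10^6/ml) were cultured 66 h at 37 °C with or without ConA (100 μg/ml stock added). MTT was added for 4 h and OD570 (ref 630 nm) read; stimulation index = mean ConA OD / mean control OD per mouse.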

B1: IFN-γ: recombinant mouse IFN-γ (rmIFN-γ), Beijing Biotech Inc.; positive control (protein, UniProt P01580 23-155, looked up)
Interferon gamma: HGTVIESLESLNNYFNSSGIDVEEKSLFLDIWRNWQKDGDMKILQSQIISFYLRLFEVLKDNQAISNNISVIESHLITTFFSNSKAKKDAFMSIAKFEVNNPQVQRQAFNELIRVVHQLLPESSLRKRKRSRC
activity of T lymphocyte in secreting IL-2, X ± SD (IU) (IL-2; peptide 5 μg/kg/day i.p. 15 days (IFN-γ, IL-2 3×10^5 IU/kg/day), saline 37 ± 9): 96 ± 14 IU | activity of T lymphocyte in secreting IL-2, X ± SD (IU) (IL-2; peptide 50 μg/kg/day i.p. 15 days (IFN-γ, IL-2 3×10^5 IU/kg/day), saline 39 ± 10): 99 ± 16 IU | activity of T lymphocyte in secreting IL-2, X ± SD (IU) (IL-2; peptide 500 μg/kg/day i.p. 15 days (IFN-γ, IL-2 3×10^5 IU/kg/day), saline 39 ± 10): 100 ± 18 IU | activity of T lymphocyte in secreting IL-2, X ± SD (IU) (IL-2; peptide 0.51 g/kg/day (so in the source) i.p. 15 days (IFN-γ, IL-2 3×10^5 IU/kg/day), saline 38 ± 13): 87 ± 15 IU | Hemolysis index [1]: 60.5 ± 17.4 | X ± SD (stimulation index) (T lymphocyte; peptide 0.5 μg/kg/day i.p. 15 days (IFN-γ, IL-2 3×10^5 IU/kg/day)): 1.6 ± 0.2 | X ± SD (stimulation index) (T lymphocyte; peptide 5 μg/kg/day i.p. 15 days (IFN-γ, IL-2 3×10^5 IU/kg/day)): 1.6 ± 0.2 | X ± SD (stimulation index) (T lymphocyte; peptide 50 μg/kg/day i.p. 15 days (IFN-γ, IL-2 3×10^5 IU/kg/day)): 1.7 ± 0.2 | X ± SD (stimulation index) (T lymphocyte; peptide 500 μg/kg/day i.p. 15 days (IFN-γ, IL-2 3×10^5 IU/kg/day)): 1.6 ± 0.2
